# According to US20160272683A1 (Novo Nordisk, published 2016):
# Numbered stars: 1 amine (or outer) side, 2 acyl side, 3 side chain; on linkers, the order of the positions; unused ones are H or OH. * marks the point of attachment. C20 diacid = O=C(O)CCCCCCCCCCCCCCCCCCC(=O)*; C18 diacid = O=C(O)CCCCCCCCCCCCCCCCC(=O)*; γGlu = O=C(O)[C@H](CCC(=O)[*:2])N[*:1]
# T1: human amylin 3(a) receptor (human calcitonin receptor co-expressed with RAMP-3) (human, UniProt P30988 25-474; O60896 24-148, limits assumed)
# T1 sequence (looked up) 1: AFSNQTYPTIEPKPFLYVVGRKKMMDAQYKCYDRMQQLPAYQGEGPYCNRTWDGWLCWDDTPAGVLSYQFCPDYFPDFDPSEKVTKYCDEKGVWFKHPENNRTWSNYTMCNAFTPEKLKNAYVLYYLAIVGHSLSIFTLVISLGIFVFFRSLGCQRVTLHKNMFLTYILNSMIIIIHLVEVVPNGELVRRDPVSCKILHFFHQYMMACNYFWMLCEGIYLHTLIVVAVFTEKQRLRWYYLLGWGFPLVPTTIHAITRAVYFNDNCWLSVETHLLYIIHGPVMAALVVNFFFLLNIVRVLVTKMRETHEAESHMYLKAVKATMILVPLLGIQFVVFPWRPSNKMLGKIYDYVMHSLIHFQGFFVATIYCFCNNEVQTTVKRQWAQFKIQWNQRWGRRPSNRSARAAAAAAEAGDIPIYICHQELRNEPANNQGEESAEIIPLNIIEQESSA
# T1 sequence (looked up) 2: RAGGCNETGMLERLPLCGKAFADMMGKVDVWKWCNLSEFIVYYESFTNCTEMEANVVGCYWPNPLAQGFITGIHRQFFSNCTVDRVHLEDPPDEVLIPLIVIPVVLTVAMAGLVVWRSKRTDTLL
# T2: human calcitonin receptor (human, UniProt P30988 25-474)
# T2 sequence (looked up): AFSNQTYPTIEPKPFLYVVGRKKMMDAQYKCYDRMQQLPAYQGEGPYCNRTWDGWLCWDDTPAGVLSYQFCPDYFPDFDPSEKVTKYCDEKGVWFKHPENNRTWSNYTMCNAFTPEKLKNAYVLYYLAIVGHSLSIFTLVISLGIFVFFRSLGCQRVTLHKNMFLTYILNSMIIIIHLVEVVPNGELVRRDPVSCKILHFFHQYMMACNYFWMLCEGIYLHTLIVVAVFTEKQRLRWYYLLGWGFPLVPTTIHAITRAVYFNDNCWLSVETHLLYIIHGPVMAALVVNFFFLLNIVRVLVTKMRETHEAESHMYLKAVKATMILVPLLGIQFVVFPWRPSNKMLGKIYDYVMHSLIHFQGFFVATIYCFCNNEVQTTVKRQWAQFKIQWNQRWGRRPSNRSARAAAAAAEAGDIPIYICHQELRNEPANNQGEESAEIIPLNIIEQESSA
# How the values were obtained:
# [1] = molecular target: T1, human amylin 3(a) receptor (human …); assay: cell-based or functional assay
# [2] = molecular target: T2, human calcitonin receptor; assay: cell-based or functional assay
hAmylin-R funct. EC50 (pM) [1] [pM],hCTR funct. EC50 (pM) [2] [pM],Binder
17,16,"{C20 diacid-γGlu}-ASELSTASLGRLSAELHELSTYPRTETGSGSY-NH2 (SMILES CC(C)C[C@H](NC(=O)[C@H](CO)NC(=O)[C@H](C)NC(=O)[C@@H](NC(=O)[C@H](CO)NC(=O)[C@H](CC(C)C)NC(=O)[C@H](CCC(=O)O)NC(=O)[C@H](CO)NC(=O)[C@H](C)NC(=O)CC[C@H](NC(=O)CCCCCCCCCCCCCCCCCCC(=O)O)C(=O)O)[C@@H](C)O)C(=O)NCC(=O)N[C@@H](CCCNC(=N)N)C(=O)N[C@@H](CC(C)C)C(=O)N[C@@H](CO)C(=O)N[C@@H](C)C(=O)N[C@@H](CCC(=O)O)C(=O)N[C@@H](CC(C)C)C(=O)N[C@@H](Cc1c[nH]cn1)C(=O)N[C@@H](CCC(=O)O)C(=O)N[C@@H](CC(C)C)C(=O)N[C@@H](CO)C(=O)N[C@H](C(=O)N[C@@H](Cc1ccc(O)cc1)C(=O)N1CCC[C@H]1C(=O)N[C@@H](CCCNC(=N)N)C(=O)N[C@H](C(=O)N[C@@H](CCC(=O)O)C(=O)N[C@H](C(=O)NCC(=O)N[C@@H](CO)C(=O)NCC(=O)N[C@@H](CO)C(=O)N[C@@H](Cc1ccc(O)cc1)C(N)=O)[C@@H](C)O)[C@@H](C)O)[C@@H](C)O) [[N-terminal(C20 diacid-gGlu), des1, 9S, 21S, 23Y, 30S, 31G, 33Y]mimylin]"
51,37,"{C20 diacid-γGlu}-ASELSTAALGKLSAELHELATYPKTETGSGSY-NH2 (SMILES CC(C)C[C@H](NC(=O)[C@H](C)NC(=O)[C@H](C)NC(=O)[C@@H](NC(=O)[C@H](CO)NC(=O)[C@H](CC(C)C)NC(=O)[C@H](CCC(=O)O)NC(=O)[C@H](CO)NC(=O)[C@H](C)NC(=O)CC[C@H](NC(=O)CCCCCCCCCCCCCCCCCCC(=O)O)C(=O)O)[C@@H](C)O)C(=O)NCC(=O)N[C@@H](CCCCN)C(=O)N[C@@H](CC(C)C)C(=O)N[C@@H](CO)C(=O)N[C@@H](C)C(=O)N[C@@H](CCC(=O)O)C(=O)N[C@@H](CC(C)C)C(=O)N[C@@H](Cc1c[nH]cn1)C(=O)N[C@@H](CCC(=O)O)C(=O)N[C@@H](CC(C)C)C(=O)N[C@@H](C)C(=O)N[C@H](C(=O)N[C@@H](Cc1ccc(O)cc1)C(=O)N1CCC[C@H]1C(=O)N[C@@H](CCCCN)C(=O)N[C@H](C(=O)N[C@@H](CCC(=O)O)C(=O)N[C@H](C(=O)NCC(=O)N[C@@H](CO)C(=O)NCC(=O)N[C@@H](CO)C(=O)N[C@@H](Cc1ccc(O)cc1)C(N)=O)[C@@H](C)O)[C@@H](C)O)[C@@H](C)O) [[N-terminal(C20 diacid-gGlu), des1, 12K, 23Y, 25K, 30S, 31G, 33Y]mimylin]"
12,6,"{C18 diacid-γGlu}-ASEVSTAVVGRLSAELHEVATLPRTETGSGSP-NH2 (SMILES CC(C)C[C@H](NC(=O)[C@H](CCCNC(=N)N)NC(=O)CNC(=O)[C@@H](NC(=O)[C@@H](NC(=O)[C@H](C)NC(=O)[C@@H](NC(=O)[C@H](CO)NC(=O)[C@@H](NC(=O)[C@H](CCC(=O)O)NC(=O)[C@H](CO)NC(=O)[C@H](C)NC(=O)CC[C@H](NC(=O)CCCCCCCCCCCCCCCCC(=O)O)C(=O)O)C(C)C)[C@@H](C)O)C(C)C)C(C)C)C(=O)N[C@@H](CO)C(=O)N[C@@H](C)C(=O)N[C@@H](CCC(=O)O)C(=O)N[C@@H](CC(C)C)C(=O)N[C@@H](Cc1c[nH]cn1)C(=O)N[C@@H](CCC(=O)O)C(=O)N[C@H](C(=O)N[C@@H](C)C(=O)N[C@H](C(=O)N[C@@H](CC(C)C)C(=O)N1CCC[C@H]1C(=O)N[C@@H](CCCNC(=N)N)C(=O)N[C@H](C(=O)N[C@@H](CCC(=O)O)C(=O)N[C@H](C(=O)NCC(=O)N[C@@H](CO)C(=O)NCC(=O)N[C@@H](CO)C(=O)N1CCC[C@H]1C(N)=O)[C@@H](C)O)[C@@H](C)O)[C@@H](C)O)C(C)C) [[N-terminal(C18 diacid-gGlu), des1, 5V, 9V, 10V, 20V, 30S, 31G]mimylin]"
43,23,"{C20 diacid-γGlu}-EASGLSTAALGRLSQELHELQTYPRTETGSGTY-NH2 (SMILES CC(C)C[C@H](NC(=O)CNC(=O)[C@H](CO)NC(=O)[C@H](C)NC(=O)[C@H](CCC(=O)O)NC(=O)CC[C@H](NC(=O)CCCCCCCCCCCCCCCCCCC(=O)O)C(=O)O)C(=O)N[C@@H](CO)C(=O)N[C@H](C(=O)N[C@@H](C)C(=O)N[C@@H](C)C(=O)N[C@@H](CC(C)C)C(=O)NCC(=O)N[C@@H](CCCNC(=N)N)C(=O)N[C@@H](CC(C)C)C(=O)N[C@@H](CO)C(=O)N[C@@H](CCC(N)=O)C(=O)N[C@@H](CCC(=O)O)C(=O)N[C@@H](CC(C)C)C(=O)N[C@@H](Cc1c[nH]cn1)C(=O)N[C@@H](CCC(=O)O)C(=O)N[C@@H](CC(C)C)C(=O)N[C@@H](CCC(N)=O)C(=O)N[C@H](C(=O)N[C@@H](Cc1ccc(O)cc1)C(=O)N1CCC[C@H]1C(=O)N[C@@H](CCCNC(=N)N)C(=O)N[C@H](C(=O)N[C@@H](CCC(=O)O)C(=O)N[C@H](C(=O)NCC(=O)N[C@@H](CO)C(=O)NCC(=O)N[C@H](C(=O)N[C@@H](Cc1ccc(O)cc1)C(N)=O)[C@@H](C)O)[C@@H](C)O)[C@@H](C)O)[C@@H](C)O)[C@@H](C)O) [[N-terminal(C20 diacid-gGlu), 4G, 15Q, 21Q, 23Y, 30S, 31G, 32T, 33Y]mimylin]"
67,70,"{C20 diacid-γGlu}-ASGLSTAVLGRLSAELHELATYPRTETGSGTY-NH2 (SMILES CC(C)C[C@H](NC(=O)CNC(=O)[C@H](CO)NC(=O)[C@H](C)NC(=O)CC[C@H](NC(=O)CCCCCCCCCCCCCCCCCCC(=O)O)C(=O)O)C(=O)N[C@@H](CO)C(=O)N[C@H](C(=O)N[C@@H](C)C(=O)N[C@H](C(=O)N[C@@H](CC(C)C)C(=O)NCC(=O)N[C@@H](CCCNC(=N)N)C(=O)N[C@@H](CC(C)C)C(=O)N[C@@H](CO)C(=O)N[C@@H](C)C(=O)N[C@@H](CCC(=O)O)C(=O)N[C@@H](CC(C)C)C(=O)N[C@@H](Cc1c[nH]cn1)C(=O)N[C@@H](CCC(=O)O)C(=O)N[C@@H](CC(C)C)C(=O)N[C@@H](C)C(=O)N[C@H](C(=O)N[C@@H](Cc1ccc(O)cc1)C(=O)N1CCC[C@H]1C(=O)N[C@@H](CCCNC(=N)N)C(=O)N[C@H](C(=O)N[C@@H](CCC(=O)O)C(=O)N[C@H](C(=O)NCC(=O)N[C@@H](CO)C(=O)NCC(=O)N[C@H](C(=O)N[C@@H](Cc1ccc(O)cc1)C(N)=O)[C@@H](C)O)[C@@H](C)O)[C@@H](C)O)[C@@H](C)O)C(C)C)[C@@H](C)O) [[N-terminal(C20 diacid-gGlu), des1, 4G, 9V, 23Y, 30S, 31G, 32T, 33Y]mimylin]"
16,5,"{C18 diacid}-EASELSTAILGRLSAELHELATLPRTETGPESP-NH2 (SMILES CC[C@H](C)[C@H](NC(=O)[C@H](C)NC(=O)[C@@H](NC(=O)[C@H](CO)NC(=O)[C@H](CC(C)C)NC(=O)[C@H](CCC(=O)O)NC(=O)[C@H](CO)NC(=O)[C@H](C)NC(=O)[C@H](CCC(=O)O)NC(=O)CCCCCCCCCCCCCCCCC(=O)O)[C@@H](C)O)C(=O)N[C@@H](CC(C)C)C(=O)NCC(=O)N[C@@H](CCCNC(=N)N)C(=O)N[C@@H](CC(C)C)C(=O)N[C@@H](CO)C(=O)N[C@@H](C)C(=O)N[C@@H](CCC(=O)O)C(=O)N[C@@H](CC(C)C)C(=O)N[C@@H](Cc1c[nH]cn1)C(=O)N[C@@H](CCC(=O)O)C(=O)N[C@@H](CC(C)C)C(=O)N[C@@H](C)C(=O)N[C@H](C(=O)N[C@@H](CC(C)C)C(=O)N1CCC[C@H]1C(=O)N[C@@H](CCCNC(=N)N)C(=O)N[C@H](C(=O)N[C@@H](CCC(=O)O)C(=O)N[C@H](C(=O)NCC(=O)N1CCC[C@H]1C(=O)N[C@@H](CCC(=O)O)C(=O)N[C@@H](CO)C(=O)N1CCC[C@H]1C(N)=O)[C@@H](C)O)[C@@H](C)O)[C@@H](C)O) [[N-terminal(C18 diacid), 9I]mimylin]"
235,45,"{C18 diacid-γGlu}-ASELTTAVLGRLTAELHELETLPRTETGTGTP-NH2 (SMILES CC(C)C[C@H](NC(=O)[C@H](CCC(=O)O)NC(=O)[C@H](C)NC(=O)[C@@H](NC(=O)[C@H](CC(C)C)NC(=O)[C@H](CCCNC(=N)N)NC(=O)CNC(=O)[C@H](CC(C)C)NC(=O)[C@@H](NC(=O)[C@H](C)NC(=O)[C@@H](NC(=O)[C@@H](NC(=O)[C@H](CC(C)C)NC(=O)[C@H](CCC(=O)O)NC(=O)[C@H](CO)NC(=O)[C@H](C)NC(=O)CC[C@H](NC(=O)CCCCCCCCCCCCCCCCC(=O)O)C(=O)O)[C@@H](C)O)[C@@H](C)O)C(C)C)[C@@H](C)O)C(=O)N[C@@H](Cc1c[nH]cn1)C(=O)N[C@@H](CCC(=O)O)C(=O)N[C@@H](CC(C)C)C(=O)N[C@@H](CCC(=O)O)C(=O)N[C@H](C(=O)N[C@@H](CC(C)C)C(=O)N1CCC[C@H]1C(=O)N[C@@H](CCCNC(=N)N)C(=O)N[C@H](C(=O)N[C@@H](CCC(=O)O)C(=O)N[C@H](C(=O)NCC(=O)N[C@H](C(=O)NCC(=O)N[C@H](C(=O)N1CCC[C@H]1C(N)=O)[C@@H](C)O)[C@@H](C)O)[C@@H](C)O)[C@@H](C)O)[C@@H](C)O) [[N-terminal(C18 diacid-gGlu), des1, 6T, 9V, 14T, 21E, 30T, 31G, 32T]mimylin]"
386,66,"{C18 diacid-γGlu}-ASELTTAVLGRLEAELHELTTLPRTETGTGTP-NH2 [[N-terminal(C18 diacid-gGlu), des1, 6T, 9V, 14E, 21T, 30T, 31G, 32T]mimylin]"
